Measured values reported in patent publication US8722856B2, “Anti-MUC1 antibody” (National University Corporation Hokkaido University, priority 2008, dated 2014).

Experiments:
[1] = biological target: T1, 2,3-ST(DT*R)-20 (Compound No. 2) (Homo sapiens, UniProt P15941); test: Sugar chain specificity, competitive ELISA against Biotin-Tn(DT*R)-100; assay type: binding; settings: glycopeptide 2,3-ST (Compound No. 2), reference = 100%
T1 construct: Synthesis of MUC1 Tn20-mer Glycopeptide; made in house; host or cells: chemical solid-phase synthesis, then enzymatic sialylation
Procedure: (§1) Such specificity can be expressed by a difference in cross reactivity. The cross reactivity is obtained by a calculation equation of (IC50 for cancer-associated structure 2,3ST/IC50 for sugar chain structure to be compared)×100(%). As used herein, inclusion of specificity refers to a difference of 2 fold or more.
(§2) Ten days after cell fusion, screening of a specific antibody-producing cell was performed. ELISA was used in screening is as follows. To each well of a 384-well microtiter plate (manufactured by Nunc) 35 μl of a Tris buffer (50 mM Tris-HCl, pH 7.5) containing 0.35 μg of an anti-mouse IgG antibody (manufactured by Shibayagi Co., Ltd.) was added to immobilize the antibody at 4° C. for 16 hours. After these wells were washed with 90 μl of a washing solution (physiological saline containing 0.01% Tween 20) once, 200 μl of BLOCK ACE (manufactured by Dainippon Sumitomo Pharma Co., Ltd.) was added, and this was allowed to stand at room temperature for 2 hours for blocking (an anti-mouse IgG antibody solid-phased plate). After each well was washed with 90 μl of a washing solution once, 10 μl of a hybridoma culture supernatant, 10 μl of a buffer A (50 mM Tris buffer containing 0.5% bovine serum albumin, 0.01% Tween 80, 0.05% Proclin 150, and 0.15 M. NaCl, pH 7.4), and 10 μl of a buffer A containing 0.01 ng of Biotin-2,3-ST(DT*R)-20 (Compound No. 16 of Table 1) and 2 ng of Streptavidin-HRP (manufactured by PIERCE) were added to perform a reaction at 4° C. for 16 hours. Then, after each well was washed with 90 μl of a washing solution three times, 25 μl of TMB+-Substrate-Chromogen (manufactured by DAKO) was added to develop a color at room temperature for 30 minutes, 25 μl of 0.05 M sulfuric acid was added to stop the reaction, and absorbance was measured at 450 nm. […] Using a mouse monoclonal antibody isotyping ELISA kit (manufactured by BD Bioscience), a subclass of the antibody was determined and, as a result, an isotype of 1B2 was IgG2a.
(§3) Fifteen (15) μl of a buffer A containing a MUC1 antibody was added to an anti-mouse IgG antibody solid-phased plate and the reaction was allowed to proceed at room temperature for 3 hours. […] Then, after each well was washed with 90 μl of a washing solution three times, 15 μl of TMB+-Substrate-Chromogen (manufactured by DAKO) was added to develop a color at room temperature for 30 minutes, 15 μl of 0.05 M sulfuric acid was added to stop the reaction, and absorbance at 450 nm was measured.

[2] = biological target: T2, 2,3-ST(VT*S)-20 (Compound No. 12) (Homo sapiens, UniProt P15941); test: as above; assay type: binding; settings: glycopeptide 2,3ST(VT*S) (Compound No. 12)
T2 construct: Synthesis of MUC1 Tn20-mer Glycopeptide; made in house; host or cells: chemical solid-phase synthesis with enzymatic sialylation
Procedure: as §1, §2, §3

[3] = biological target: T3, 2,3ST6G(DT*R)-20 (Compound No. 6) (Homo sapiens, UniProt P15941); test: as above; assay type: binding; settings: glycopeptide 2,3ST6G (Compound No. 6)
T3 construct: Synthesis of MUC1 Tn20-mer Glycopeptide; made in house; host or cells: chemical solid-phase synthesis (Compound 5), then enzymatic sialylation
Procedure: as §1, §2, §3

[4] = biological target: T4, 2,3ST6L(DT*R)-20 (Compound No. 7) (Homo sapiens, UniProt P15941); test: as above; assay type: binding; settings: glycopeptide 2,3ST6L (Compound No. 7)
T4 construct: Synthesis of MUC1 Tn20-mer Glycopeptide; made in house; host or cells: chemical solid-phase synthesis (Compound 5), then enzymatic sugar extension
Procedure: as §1, §2, §3

[5] = biological target: T5, 40 (Compound No. 13), non-glycosylated (Homo sapiens, UniProt P15941); test: as above; assay type: binding; settings: Non-glycosylated peptide (Compound No. 13)
T5 construct: made in house; host or cells: chemical solid-phase synthesis
Procedure: as §1, §2, §3

[6] = biological target: T6, dST(DT*R)-20 (Compound No. 11) (Homo sapiens, UniProt P15941); test: as above; assay type: binding; settings: glycopeptide dST (Compound No. 11)
T6 construct: Synthesis of MUC1 Tn20-mer Glycopeptide; made in house; host or cells: chemical solid-phase synthesis with enzymatic sialylation
Procedure: as §1, §2, §3

[7] = system: Biotin-Tn(DT*R)-20, -40, -60, -80, -100 (Compound Nos. 17-21); test: Tandem repeat dependency ELISA on Streptavidin solid-phased plate; assay type: binding
Procedure: To each well of a 384-well microtiter plate (manufactured by Nunc) 35 μl of a Tris buffer (50 mM Tris-HCl, pH 7.5) containing 0.35 μg of Streptavidin (manufactured by PIERCE) was added to perform immobilization at 4° C. for 16 hours. After these wells were washed with 90 μl of a washing solution (physiological saline containing 0.01% Tween 20) once, 200 μl of Block Ace (manufactured by Dainippon Sumitomo Pharma Co., Ltd.) was added, and this was allowed to stand at room temperature for 2 hours, to perform blocking (a Streptavidin solid-phased plate). […] Then, after each well was washed with 90 μl of a washing solution three times, 15 μl of TMB+-Substrate-Chromogen (manufactured by DAKO) was added to develop a color at room temperature for 30 minutes, 15 μl of 0.05 M sulfuric acid was added to stop the reaction, and absorbance at 450 nm was measured. […] Therefore, the antibody of the present invention can be said to have an affinity for Tn-100-mer biotin of lower than 1.0×10^−9 (M), and can be said to have the ability to bind to a Tn20-mer tandem structure fragment. More particularly, it can also be said that the antibody of the present invention has a ratio (A100/A20) of absorbance at 450 nm in the case of use of Tn20-mer biotin (A20) and absorbance at 450 nm in the case of use of Tn100-mer biotin (A100), of 2 or lower.

[8] = system: normal tissue around a breast cancer; test: Immunological tissue staining; design: species or system human; settings: formalin-fixed, paraffin-embedded normal tissue around the breast cancer
Excerpt: Immunological tissue staining of the 1B2 antibody to a piece of a human breast cancer tissue and a normal tissue around a breast cancer (BioCahin) which had been formalin-fixed and paraffin-embedded was implemented using the Vectastain elite ABC kit (manufactured by Vector Laboratories) and DAB (manufactured by Roche) according to the attached manual.

[9] = biological target: T7, Biotin-2,3-ST(DT*R)-20 (Compound No. 16) (Homo sapiens, UniProt P15941); test: Hybridoma screening ELISA (selection of MUC1 antibody); assay type: binding; settings: hybridoma culture supernatant
T7 construct: Synthesis of MUC1 Tn20-mer Glycopeptide; made in house; host or cells: chemical solid-phase synthesis with enzymatic sialylation
Procedure: as §2, with “After each well was washed with 90 μl of a washing solution once, 10 μl of a hybridoma culture supernatant, 10 μl of a buffer A (50 mM Tris buffer containing 0.5% bovine serum albumin, 0.01% Tween 80, 0.05% Proclin 150, and 0.15 M. NaCl, pH 7.4), and 10 μl of a buffer A containing 0.01 ng of Biotin-2,3-ST(DT*R)-20 (Compound No. 16 of Table 1) and 2 ng of Streptavidin-HRP (manufactured by PIERCE) were added to perform a reaction at 4° C. for 16 hours.” left out

T5 sequence (P15941 136-175): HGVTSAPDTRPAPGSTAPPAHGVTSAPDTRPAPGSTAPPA
T4 sequence (P15941 136-155): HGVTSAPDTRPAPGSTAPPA

Cross reactivity letting 2,3-ST to be 100% [1]: 100% | Cross reactivity letting 2,3-ST to be 100% [2]: <0.030% | Cross reactivity letting 2,3-ST to be 100% [3]: 0.061% | Cross reactivity letting 2,3-ST to be 100% [4]: 0.063% | Cross reactivity letting 2,3-ST to be 100% [5]: 0.13% | Cross reactivity letting 2,3-ST to be 100% [6]: 3.0% | affinity for 2,3-ST(DT*R)-20 in screening [9]: strong affinity
B1: 1B2: mouse monoclonal anti-MUC1 antibody, isotype IgG2a, clone from immunization with 2,3-ST(DT*R)-20 conjugated to BSA (antibody, V domains shown)
VH: MEWIWIFLFILSGTAGVQSQVQLQQSGAELARPGASVKLSCKASGYTFTNYGLSWVKQRTGQGLEWIGENHPGSGIIYHNEKFRGKATLTADKSSSTAYVQLSSLTSEDSAVYFCARSSGTRGFAYWGQGTLVTVSA
VL: MKLPVRLLVLMFWIPASSSDVLMTQTPLSLPVSLGDQASISCRSSQSIVHSNGNTYLEWYLQKPGQSPKLLIYKVSNRFSGVPDRFSGSGSGTDFTLKISRVEAEDLGVYYCFQGSHGPWTFGGGTKLEIKRA
modifications: Antibody 1B2 VH sequence; Antibody 1B2 VL sequence
reactivity by peptide chain length ([7]; Biotin-Tn(DT*R)-40, -60, -80, -100): approximately the same reactivity | dependency on the length of the tandem repeat ([7]; absorbance at 450 nm, 20-mer to 100-mer): low dependency on a length of the tandem repeat | stained image [8]: scarcely recognized
